{"source": "patent CN113583127A", "about": "(MABWELL SHANGHAI BIOTECHNOLOGY CO LTD, dated 2021)", "binders": {"B1": {"name": "hum270重组抗体 (antibody, V domains shown)", "VH": "EVQLVQSGAEVKKPGASVKVSCKASGYTFTSYWMNWVRQAPGQGLEWMGRIDPYDSETHYAQKLQGRVTMTTDTSTSTAYMELRSLRSDDTAVYYCARGGYDFDVGTLYWFFDVWGQGTTVTVSS", "VL": "DIQMTQSPSSLSASVGDRVTITCRASENIYSYLAWYQQKPGKAPKLLIYNAKTLAEGVPSRFSGSGSGTDFTLTISSLQPEDFATYYCQHHYGTPRTFGGGTKVEIK"}, "B2": {"name": "AM10 Fab (Fab, V domains shown)", "VH": "B1 VH with G26S, T28D, T30S, S31W, M34I", "VL": "B1 VL"}, "B3": {"name": "抗NKG2A和抗PD-L1双特异性抗体hum270-F2 (bispecific antibody, part only; not given: Anti-PD-L1 nanobody F2, linker, constant regions, IgG4, not shown: a dimerising Fc or GST)", "heavy, part": "B1 VH", "light, part": "B1 VL"}, "B4": {"name": "AM00 Fab (Fab, V domains shown)", "VH": "B1 VH", "VL": "B1 VL", "notes": "also called 亲本抗体AM00; 模板抗体Fab"}}, "key": {"[1]": {"target": "mFc-NKG2A-CD94重组蛋白 (human) (UniProt P26715)", "assay": "BLI (Octet QKe), antibody captured on AHC probe, mFc-NKG2A-CD94 as analyte, 1:1 fit"}, "[2]": {"target": "T1, 人NKG2A/CD94 (Flp-in CHO稳定表达细胞株表面) (human, UniProt P26715 1-233; Q13241 1-179)", "T1 construct": "whole, on cells; also called 细胞表面人NKG2A/CD94; huNKGA/huCD94", "T1 sequence (P26715 whole entry, chain 1 of 2)": "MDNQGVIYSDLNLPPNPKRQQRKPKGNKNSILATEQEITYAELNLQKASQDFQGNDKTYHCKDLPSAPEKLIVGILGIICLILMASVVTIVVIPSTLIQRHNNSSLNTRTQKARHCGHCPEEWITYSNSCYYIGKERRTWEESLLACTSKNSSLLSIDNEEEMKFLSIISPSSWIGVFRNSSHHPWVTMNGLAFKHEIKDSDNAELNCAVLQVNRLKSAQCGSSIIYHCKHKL", "T1 sequence (Q13241 whole entry, chain 2 of 2)": "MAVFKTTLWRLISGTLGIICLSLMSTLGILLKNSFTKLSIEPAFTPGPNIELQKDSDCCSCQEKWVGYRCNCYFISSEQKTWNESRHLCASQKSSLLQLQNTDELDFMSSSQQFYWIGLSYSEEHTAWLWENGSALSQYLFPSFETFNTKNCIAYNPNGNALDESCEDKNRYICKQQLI", "assay": "flow cytometry, Fab titrated on CHO cells expressing human NKG2A/CD94; column head KD[nM], title and text call it EC50"}, "PD-L1-ECD-mFc": {"target": "PD-L1-ECD-mFc (UniProt Q9NZQ7)", "sequence (Q9NZQ7 19-239)": "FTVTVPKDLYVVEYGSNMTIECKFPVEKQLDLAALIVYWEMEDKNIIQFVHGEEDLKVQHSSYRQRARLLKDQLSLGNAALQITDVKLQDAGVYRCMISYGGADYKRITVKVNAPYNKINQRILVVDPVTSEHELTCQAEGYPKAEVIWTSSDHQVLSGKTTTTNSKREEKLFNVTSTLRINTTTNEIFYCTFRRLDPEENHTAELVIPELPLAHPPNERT", "assay": "competition ELISA: PD-1-hFc coated, 3 nM PD-L1-ECD-mFc with titrated antibody, detection with HRP anti-mouse Fc"}}, "note": "Positions count from the first letter of the chain named.", "data": [{"binder": "B1", "values": [{"measurement": "Kd", "setting": "[1]", "value": 0.408, "unit": "nM"}, {"measurement": "koff", "setting": "[1]", "value": 0.000196, "unit": "s⁻¹"}, {"measurement": "kon", "setting": "[1]", "value": 481000, "unit": "M⁻¹ s⁻¹"}]}, {"binder": "B2", "values": [{"measurement": "Kd", "setting": "[2]", "value": 1.43, "unit": "nM"}]}, {"binder": "B3", "values": [{"measurement": "IC50", "setting": "PD-L1-ECD-mFc", "value": 2.86, "unit": "nM"}]}, {"binder": "B4", "values": [{"measurement": "Kd", "setting": "[2]", "value": 189, "unit": "nM"}]}]}
